Measurements reported in article PMC6805484, “The RNA-binding ubiquitin ligase MKRN1 functions in ribosome-associated quality control of poly(A) translation”.

Biological target: His-MKRN1 wt;His-PABPC1 (human (Homo sapiens);human (Homo …, UniProt Q9UHC7;P11940 1-482;1-636, |))
Test: pull-down; PABPC1 strongly increases MKRN1 recovery; Binding: 50 mM Tris-HCl pH 7.4, 500 mM KCl, 12.5 mM MgCl2, 1% Triton X-100, 1 h, 4 °C; wash: 200 mM NaCl, 10 mM MgCl2, 50 mM HEPES pH 7.4, 0.5% Igepal CA630, 1% Triton X-100
Details: protein: recombinant;recombinant; tags: N-His6;N-His6; copies: 1;1; label: 3' biotin

His-MKRN1 wt;His-PABPC1 (human (Homo sapiens);human, sequence (Q9UHC7 whole entry, chain 1 of 2): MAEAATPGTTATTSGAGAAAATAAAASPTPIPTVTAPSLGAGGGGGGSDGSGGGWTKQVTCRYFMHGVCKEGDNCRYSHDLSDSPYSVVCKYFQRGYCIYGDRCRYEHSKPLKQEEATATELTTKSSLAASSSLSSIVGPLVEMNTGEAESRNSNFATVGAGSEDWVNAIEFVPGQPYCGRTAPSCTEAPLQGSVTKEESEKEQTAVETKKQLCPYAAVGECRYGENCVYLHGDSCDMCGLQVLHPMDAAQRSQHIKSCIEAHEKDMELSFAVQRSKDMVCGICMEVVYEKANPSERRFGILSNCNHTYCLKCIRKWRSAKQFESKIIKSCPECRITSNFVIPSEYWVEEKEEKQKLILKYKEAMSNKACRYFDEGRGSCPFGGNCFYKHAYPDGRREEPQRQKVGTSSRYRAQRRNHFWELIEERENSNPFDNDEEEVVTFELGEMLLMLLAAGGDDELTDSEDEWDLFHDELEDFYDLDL
His-MKRN1 wt;His-PABPC1 (human (Homo sapiens);human, sequence (P11940 whole entry, chain 2 of 2): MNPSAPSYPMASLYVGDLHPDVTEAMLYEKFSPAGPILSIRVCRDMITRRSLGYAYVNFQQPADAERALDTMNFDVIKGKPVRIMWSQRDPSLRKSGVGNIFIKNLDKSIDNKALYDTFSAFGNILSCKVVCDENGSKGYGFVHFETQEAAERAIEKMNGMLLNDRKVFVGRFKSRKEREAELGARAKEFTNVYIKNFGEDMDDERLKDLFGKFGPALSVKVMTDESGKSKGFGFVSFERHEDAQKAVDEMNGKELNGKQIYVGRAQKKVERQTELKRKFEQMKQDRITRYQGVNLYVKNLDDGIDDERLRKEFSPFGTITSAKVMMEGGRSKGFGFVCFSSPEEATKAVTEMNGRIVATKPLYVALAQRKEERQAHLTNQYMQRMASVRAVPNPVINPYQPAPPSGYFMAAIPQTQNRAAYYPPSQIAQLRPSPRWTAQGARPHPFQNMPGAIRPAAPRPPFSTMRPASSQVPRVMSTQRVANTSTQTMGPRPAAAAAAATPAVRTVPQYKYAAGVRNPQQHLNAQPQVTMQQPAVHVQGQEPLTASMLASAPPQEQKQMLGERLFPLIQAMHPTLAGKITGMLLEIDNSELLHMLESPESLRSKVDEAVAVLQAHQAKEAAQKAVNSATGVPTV

## GGAAAUAAACUGUAGAGUUCCAAAAAAAAAAAAAAAAAAAAA (ssRNA) [A20 RNA (SRSF4 3' UTR end + A20)]
  binding result: binds
